For series [1], the target named is T1, WRNIP1 (short isoform) (Homo sapiens, UniProt Q96S55-2 1-640).
T1 sequence: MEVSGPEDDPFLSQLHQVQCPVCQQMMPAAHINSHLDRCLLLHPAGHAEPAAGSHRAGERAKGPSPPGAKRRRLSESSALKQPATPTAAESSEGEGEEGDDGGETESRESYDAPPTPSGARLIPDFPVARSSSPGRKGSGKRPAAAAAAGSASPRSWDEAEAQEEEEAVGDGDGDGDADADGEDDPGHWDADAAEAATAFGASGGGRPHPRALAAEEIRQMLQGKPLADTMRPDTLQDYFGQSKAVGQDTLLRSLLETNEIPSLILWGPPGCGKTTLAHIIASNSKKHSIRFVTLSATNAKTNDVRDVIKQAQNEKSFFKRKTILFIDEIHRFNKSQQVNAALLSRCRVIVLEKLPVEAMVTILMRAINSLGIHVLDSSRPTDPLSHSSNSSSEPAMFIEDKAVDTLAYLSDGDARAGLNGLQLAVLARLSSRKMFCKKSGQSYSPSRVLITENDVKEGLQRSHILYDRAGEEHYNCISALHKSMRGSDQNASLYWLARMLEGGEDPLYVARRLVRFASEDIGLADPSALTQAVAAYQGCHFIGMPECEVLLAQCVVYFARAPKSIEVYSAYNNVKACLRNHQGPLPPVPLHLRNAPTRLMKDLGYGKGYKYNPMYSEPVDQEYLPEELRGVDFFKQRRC
Kind of series: EMSA. In general terms: A gel shift assay detects complexes by their altered migration in electrophoresis.

Series [2] addresses T1, WRNIP1 (short isoform). Description: EMSA. The source holds these as a separate data set.

The text below walks through data of paper PMC6820244.

Read-outs that look alike come from different tables or passages of the source.

B1: ssDNA X01 (ssDNA)
DNA: GACGCTGCCGAATTCTACCAGTGCCTTGCTAGGACATCTTTGCCCACCTGCAGGTTCACCC
For the molecule B1, the binding result with WRNIP1 (short isoform) [1] is given as “no binding”.

B2: nicked four-way junction (structured_DNA)
DNA 1: GACGCTGCCGAATTCTACCAGTGCCTTGCTAGGACATCTTTGCCCACCTGCAGGTTCACCC
DNA 2: TGGGTGAACCTGCAGGTGGGCAAAGATGTCCATCTGTTGTAATCGTCAAGCTTTATGCCGTT
DNA 3: CATGGAGCTGTCTAGAGGATCCGACTATCGA
DNA 4: GAACGGCATAAAGCTTGACGATTACAACAGAT
DNA 5: ATCGATAGTCGGATCCTCTAGACAGCTCCATGTAGCAAGGCACTGGTAGAATTCGGCAGCGT
Turning to B2, the binding result with WRNIP1 (short isoform) [2] was “binds”.
